Substrate in the data set “purified protein”: CC(=O)O
Nature of the data set: purified protein. As to conditions: co-substrate butyryl-CoA, 40 mM potassium phosphate pH 8.0, ternary-complex mechanism.

Substrate in data set [1]: CCCC(=O)SCCNC(=O)CCNC(=O)[C@H](O)C(C)(C)COP(=O)(O)OP(=O)(O)OC[C@H]1O[C@@H](n2cnc3c(N)ncnc32)[C@H](O)[C@@H]1OP(=O)(O)O
Nature of the data set: acetyl-CoA formation, citrate synthase/DTNB A412, secondary plots. To be noted: co-substrate sodium acetate, 40 mM potassium phosphate pH 8.0, ternary-complex mechanism. The data set is classed as biochemical, Porphyromonas gingivalis. An excerpt: (§1) acetyl-CoA formation, citrate synthase/DTNB A412, secondary plots on PGN_0725

Substrate in data set [2]: CCC(=O)SCCNC(=O)CCNC(=O)[C@H](O)C(C)(C)COP(=O)(O)OP(=O)(O)OC[C@H]1O[C@@H](n2cnc3c(N)ncnc32)[C@H](O)[C@@H]1OP(=O)(O)O
The data set is described as above. The data set is classed as biochemical, Porphyromonas gingivalis. As to conditions: co-substrate sodium acetate, 40 mM potassium phosphate pH 8.0, ternary-complex mechanism.
Source text: as §1

Substrate in data set [3]: CCCC(=O)SCCNC(=O)CCNC(=O)[C@H](O)C(C)(C)COP(=O)(O)OP(=O)(O)OC[C@H]1O[C@@H](n2cnc3c(N)ncnc32)[C@H](O)[C@@H]1OP(=O)(O)O
Described as above. The data set is classed as biochemical, Porphyromonas gingivalis. To be noted: co-substrate sodium acetate, 40 mM potassium phosphate pH 8.0, ternary-complex mechanism. The source says: (§2) acetyl-CoA formation, citrate synthase/DTNB A412, secondary plots on PGN_1888
This is another data set of the same source.

Substrate in data set [4]: CCC(=O)SCCNC(=O)CCNC(=O)[C@H](O)C(C)(C)COP(=O)(O)OP(=O)(O)OC[C@H]1O[C@@H](n2cnc3c(N)ncnc32)[C@H](O)[C@@H]1OP(=O)(O)O
Described as above. In kind it is biochemical, Porphyromonas gingivalis. As to conditions: co-substrate sodium acetate, 40 mM potassium phosphate pH 8.0, ternary-complex mechanism.
Source text: as §2
The source holds these as a separate data set.

Substrate in data set [5]: CCCC(=O)SCCNC(=O)CCNC(=O)[C@H](O)C(C)(C)COP(=O)(O)OP(=O)(O)OC[C@H]1O[C@@H](n2cnc3c(N)ncnc32)[C@H](O)[C@@H]1OP(=O)(O)O
The data set is described as above. In kind it is biochemical, Porphyromonas gingivalis. As to conditions: co-substrate sodium acetate, 40 mM potassium phosphate pH 8.0, ternary-complex mechanism. The source says: acetyl-CoA formation, citrate synthase/DTNB A412, secondary plots on PGN_1341
The source holds these as a separate data set.

B1: PGN_0725 (Porphyromonas gingivalis ATCC 33277) (protein)
chain: MKDVLAEYASRIVSAEEAVKHIKNGERVALSHAAGVPQSCVDALVQQADLFQNVEIYHMLCLGEGKYMAPEMAPHFRHITNFVGGNSRKAVEENRADFIPVFFYEVPSMIRKDILHIDVAIVQLSMPDENGYCSFGVSCDYSKPAAESAHLVIGEINRQMPYVHGDNLIHISKLDYIVMADYPIYSLAKPKIGEVEEAIGRNCAELIEDGATLQLGIGAIPDAALLFLKDKKDLGIHTEMFSDGVVELVRSGVITGKKKTLHPGKMVATFLMGSEDVYHFIDKNPDVELYPVDYVNDPRVIAQNDNMVSINSCIEIDLMGQVVSECIGSKQFSGTGGQVDYVRGASWSKNGKSIMAIPSTAKNGTASRIVPIIAEGAAVTTLRNEVDYVVTEYGIAQLKGKSLRQRAEALIAIAHPDFREELTEHLRKRFG
notes: recombinant full-length, pGEX-6P-1 (GST vector) in E. coli; 431 aa
Take B1: the Km was 16000 ± 1800 µM in “purified protein”, 520 ± 10 µM in data set [1] and 108 ± 47 µM in data set [2]. The kcat in “purified protein” was found to be 560 ± 4.1 s⁻¹; in data set [1], 560 ± 4.1 s⁻¹; in data set [2], 533 ± 31 s⁻¹.

B2: PGN_1888 (Porphyromonas gingivalis ATCC 33277) (protein)
chain: MQWQELYRQRVCSADEAVVDSLKPGTKVVFGHAAAAPVRFSQAMYRQRERLENITVFHMLYFGDAPHLAPEMRSHVHPTLNFLEGNSRPASRDRRVDFIPCHFHEVPELFRQGFFPLDVAVVQVSTPNEEGYCSFGVSCDYTKAAAECAPVVVAEVNKQMPFIGGENLIHISNLTHIIEVDEPIAEVLPPAISDLELRIGQNCASLIKDGDTLQLGIGGIPDAVLRALEGHKDLGIHTEMFTDGVMRMIRKGIINGKKKTLHPEKVVTSLIFGSKELYDFVNNNPVIECYPVDYINNPDVIGKNDRMVSINSCLEMDLMGQAASESIGYEQFSGSGGQVDFLRGAKRSKGGISIMAFPSTAKKGTESRIVPILKEGACVTTGRNEVDYVVTEYGVARLRGATLRQRAEALTAIAHPDFRPALEEEIRRRFE
notes: as for B1
Take B2: the values for the Km (in the data set “purified protein”; in data set [3]; in data set [4]) were 33000 ± 5300 µM, 920 ± 70 µM and 23 ± 4.4 µM, respectively. Moreover, the figures for the kcat (in “purified protein”; in data set [3]; in data set [4]) were 254 ± 10 s⁻¹, 254 ± 10 s⁻¹ and 1374 ± 477 s⁻¹, respectively.

B3: PGN_1341 (Porphyromonas gingivalis ATCC 33277) (protein)
chain: MALRFITAEEAAEFVHHNDNVGFSGFTPAGNPKVVPAAIAKRAIAEHEKGNPFKIGMFTGASTGARLDGVLAQADAVKFRTPYQSNKDLRNLINNGSTSYFDLHLSTLAQDLRYGFYGKVDVAIIEVADVTEDGKILPTTGVGILPTICRLADRIIVELNDKHPKEIMGMHDLCEPLDPPARRELPVYTPSDRIGKPYVQVDPAKIVGVVRTSEPNDESDFAPLDPVTQAIGDNVAAFLVSEMKAGRIPKDFLPLQSGVGNVANAVLGALGDNPDIPAFNMYTEVIQDAVIALMKKGRIKFASGCSLSVSRSVIQDIYANLDFFKDKILLRPQEYSNNPEIVRRLGVITINTALEADIFGNINSTHVSGTRMMNGIGGSGDFTRNSYVSIFTTPSVMKDGKISSFVPMVAHHDHSEHSVKVIISEWGVADLRGKNPRERAHEIIDKCVHPDYRPLLRQYLELGVKGQTPQNLDCCFAFHQELAKSGDMRNVRWEDYMK
notes: recombinant full-length, pGEX-6P-1 (GST vector) in E. coli; 498 aa
As for B3, in the data set “purified protein”, the Km came to 26000 ± 2800 µM and the kcat was determined as 24 ± 0.3 s⁻¹. Besides, in data set [5], the Km was 610 ± 40 µM and the kcat came out at 24 ± 0.3 s⁻¹.

A word on the Km: it is the concentration of substrate that gives half-maximal velocity. As a reminder, the kcat is the number of substrate molecules converted per active site and unit of time at saturation.

The values are drawn from article PMC4949257, “Three CoA Transferases Involved in the Production of Short Chain Fatty Acids in Porphyromonas gingivalis” (Frontiers in Microbiology, 2016).
